Measurements: patent US20120189541A1 (AbbVie / Abbott, published 2012)

T1: Recombinant Human IL-1α (human, UniProt P01583 113-271)
T1 construct: Bought recombinant protein; Biotinylated in the capture ELISA; also called hIL-1α; IL-1 alpha
T1 sequence (looked up): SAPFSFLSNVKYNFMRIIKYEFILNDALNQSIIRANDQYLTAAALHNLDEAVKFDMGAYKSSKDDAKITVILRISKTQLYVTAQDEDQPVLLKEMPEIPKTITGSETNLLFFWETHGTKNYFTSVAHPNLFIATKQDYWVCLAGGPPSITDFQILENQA


Legend:
[1] = target: T1, Recombinant Human IL-1α; test: SPR (BIACORE), human antigen
Protocol: (§1) The BIACORE assay (Biacore, Inc, Piscataway, N.J.) determines the affinity of antibodies or DVD-Ig molecule with kinetic measurements of on-rate and off-rate constants. Binding of antibodies or DVD-Ig molecule to a target antigen (for example, a purified recombinant target antigen) is determined by surface plasmon resonance-based measurements with a Biacore® 1000 or 3000 instrument (Biacore® AB, Uppsala, Sweden) using running HBS-EP (10 mM HEPES [pH 7.4], 150 mM NaCl, 3 mM EDTA, and 0.005% surfactant P20) at 25° C. All chemicals are obtained from Biacore® AB (Uppsala, Sweden) or otherwise from a different source as described in the text. For example, approximately 5000 RU of goat anti-mouse IgG, (Fcγ), fragment specific polyclonal antibody (Pierce Biotechnology Inc, Rockford, Ill.) diluted in 10 mM sodium acetate (pH 4.5) is directly immobilized across a CM5 research grade biosensor chip using a standard amine coupling kit according to manufacturer's instructions and procedures at 25 μg/ml. Unreacted moieties on the biosensor surface are blocked with ethanolamine. Modified carboxymethyl dextran surface in flowcell 2 and 4 is used as a reaction surface. Unmodified carboxymethyl dextran without goat anti-mouse IgG in flow cell 1 and 3 is used as the reference surface. For kinetic analysis, rate equations derived from the 1:1 Langmuir binding model are fitted simultaneously to association and dissociation phases of all eight injections (using global fit analysis) with the use of Biaevaluation 4.0.1 software. Purified antibodies or DVD-Ig molecule are diluted in HEPES-buffered saline for capture across goat anti-mouse IgG specific reaction surfaces. Antibodies or DVD-Ig molecule to be captured as a ligand (25 μg/ml) are injected over reaction matrices at a flow rate of 5 μl/min. The association and dissociation rate constants, kₒₙ (M⁻¹s⁻¹) and koff (s⁻¹) are determined under a continuous flow rate of 25 μl/minute. Rate constants are derived by making kinetic binding measurements at different antigen concentrations ranging from 10-200 nM. The equilibrium dissociation constant (M) of the reaction between antibodies or DVD-Ig molecules and the target antigen is then calculated from the kinetic rate constants by the following formula: KD=koff/kₒₙ. Binding is recorded as a function of time and kinetic rate constants are calculated.

[2] = target: T1, Recombinant Human IL-1α; test: capture ELISA: antibody captured by anti-human Fc, biotinylated antigen titrated
Protocol: (§2) Plates were washed five times in washing buffer (PBS containing 0.05% Tween 20) and blocked for 1 hour at 25° C. with 200 μl per well superblock blocking buffer (Thermo scientific, #37515). Blocking buffer was removed, and 2 μg/ml of each antibody or DVD-Ig molecule in PBS containing 10% superblock, 0.5% Tween-20 was added to the wells at 100 μl per well and incubated at 25° C. for 1 hour. The wells were washed five times in 1×PBST, and 1 μg/ml biotinylated antigen was titrated at 1:6 serial dilutions (for a range of μg to pg in PBS containing 10% superblock, 0.05% tween 20). Each dilution of antigen was then added to the plates and incubated for 1 hour at 25° C. The wells were washed five times in 1×PBST and incubated for 1 hour at 25° C. with polyHRP streptavidin (KPL #474-3000, Gaithersburg, Md.). The wells were washed five times in 1×PBST, and 100 μl of ULTRA-TMB ELISA (Pierce, Rockford, Ill.) were added per well. Following color development the reaction was stopped with 1N HCL and absorbance at 450 nm is measured.

[3] = target: T2, Recombinant Human IL-1β (human, UniProt P01584 117-269); test: SPR (BIACORE), human antigen
T2 construct: Bought recombinant protein; Biotinylated in the capture ELISA; also called hIL-1β; IL-1 beta
Protocol: as §1

[4] = target: T2, Recombinant Human IL-1β; test: capture ELISA: antibody captured by anti-human Fc, biotinylated antigen titrated
Protocol: as §2

[5] = target: T2, Recombinant Human IL-1β; test: cell-based or functional assay

Kd [1] [nM]	koff [1] [s⁻¹]	kon [1] [M⁻¹ s⁻¹]	EC50 [2] [nM]	Kd [3] [nM]	koff [3] [s⁻¹]	kon [3] [M⁻¹ s⁻¹]	EC50 [4] [nM]	Human IL-1β Neutralization Assay EC50 (IL-1 induced hIL-8, MRC-5 cells) [5] [nM]	Binder
1.35	0.00274	2.04e+06	0.028	–	–	–	–	–	3D12.8 (antibody, human IgG1, kappa, L234A L235A, V domains shown, Parent anti-IL-1α antibody; also called 3D12.8VH; 3D12.8VL) VH: EIQLVQSGSELKKPGASVKVSCKASGYTFTNYGMNWVRQAPGQDLERMAWINTYTGESTYADDFKGRFVFSLDTSVSTAYLQISSLKAEDTAVYFCARGIYYYGSSYAMDYWGQGTTVTVSS VL: DIQMTQSPSSLSASVGDRVTITCRASQDISNCLNWYQQKPGKTPKLLIYYTSRLHSGVPSRFSGSGSGTDYTFTISSLQPEDIATYFCQQGKTLPYAFGQGTKLEIKR
2.09	0.00253	1.21e+06	0.01	–	–	–	–	–	3D12.16 (antibody, human IgG1, kappa, L234A L235A, V domains shown, Parent anti-IL-1α antibody; also called 3D12.16VH; 3D12.16VL) VH: EIQLVQSGAEVKKPGASVKVSCKASGYTFTNYGMNWVRQAPGQDLERMAWINTYTGESTYADDFKGRFTFTLDTSTSTAYMELSSLRSEDTAVYFCARGIYYYGSSYAMDYWGQGTTVTVSS VL: DIQMTQSPSSLSASVGDRVTITCRASQDISNCLNWYQQKPGKTPKLLIYYTSRLHSGVPSRFSGSGSGTDYTFTISSLQPEDIATYFCQQGKTLPYAFGQGTKLEIKR
–	–	–	–	0.186	0.00103	5.55e+06	0.0399	0.15	1B12.1 (antibody, human IgG1, kappa, L234A L235A, V domains shown, Parent anti-IL-1β antibody; also called 1B12.1VH; 1B12.1VL) VH: EVQLQESGPGLVKPSETLSLTCTVSGFSLSDYGVSWIRQPPGKGLEWLGLIWGGGDTYYNSPLKSRLTISKDNSKSQVSLKLSSVTAADTAVYYCAKQRTLWGYDLYGMDYWGQGTLVTVSS VL: DTQVTQSPSSLSASVGDRVTITCITSTDIDVDMNWYQQKPGKPPKLLISQGNTLRPGVPSRFSSSGSGTDFTFTISSLQPEDFATYYCLQSDNLPLTFGQGTKLEIKR
–	–	–	–	0.206	0.00118	5.73e+06	0.0438	0.3	1B12.3 (antibody, human IgG1, kappa, L234A L235A, V domains shown, Parent anti-IL-1β antibody; also called 1B12.3VH; 1B12.3VL) VH: EVQLQESGPGLVKPSETLSLTCTVSGFSLSDYGVSWIRQPPGKGLEWLGLIWGGGDTYYNSPLKSRLTISKDNSKSQVSLKLSSVTAADTAVYYCAKQRTLWGYDLYGMDYWGQGTLVTVSS VL: DTVVTQSPAFLSVTPGEKVTITCITSTDIDVDMNWYQQKPDQPPKLLISQGNTLRPGVPSRFSSSGSGTDFTFTISSLEAEDAATYYCLQSDNLPLTFGQGTKLEIKR
–	–	–	–	0.202	0.00125	6.2e+06	0.0459	0.38	1B12.6 (antibody, human IgG1, kappa, L234A L235A, V domains shown, Parent anti-IL-1β antibody; also called 1B12.6VH; 1B12.6VL) VH: EVQLVESGGGLVQPGGSLRLSCAVSGFTLSDYGVSWIRQAPGKGLEWLGLIWGGGDTYYNSPLKSRLTISKDNSKSTVYLQMNSLRAEDTAVYYCAKQRTLWGYDLYGMDYWGQGTLVTVSS VL: ETTVTQSPSSLSASVGDRVTITCITSTDIDVDMNWYQQKPGKPPKLLISQGNTLRPGVPSRFSSSGSGTDFTFTISSLQPEDFATYYCLQSDNLPLTFGQGTKLEIKR
